Three molecules from patent publication US20220064272A1 (TAUC3 BIOLOGICS, published 2022) can be followed below.

Test [1] addresses T1, TauC3 (C-terminally truncated tau fragment ending at aspartate 421 of htau40) (human, UniProt P10636 1-738).
T1 construct: Generated and purified by Genscript; also called Human TauC3; recombinant TauC3 protein
Kind of test: binding ELISA on coated TauC3, OD650. The method in brief:
(§1)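 TauC3 antigen, made and purified by Genscript, was coated for a binding ELISA. The antibodies tested were chimeric or humanized IgG4κ expressed in ExpiCHO cells. Binding was recorded as absorbance at 650 nm, and EC50 came from the concentration-response of each antibody.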

For test [2], the target named is T1, TauC3 (C-terminally truncated tau …). Briefly: binding ELISA on coated TauC3, OD650. The gist of the method: as §1
The source holds these as a separate data set.

Test [3] shares this target. Briefly: binding ELISA on coated TauC3, OD650. The gist of the method:
as §1
The source holds these as a separate data set.

The target is the same in test [4]. Kind of test: binding ELISA on coated TauC3, OD650. The gist of the method:
as §1
The source holds these as a separate data set.

Test [5] has the same target. Briefly: binding ELISA on coated TauC3, OD650. The gist of the method: as §1
This is another data set of the same source.

The target is the same in test [6]. Kind of test: SPR (Biacore) kinetics, TauC3 amine-coupled on CM5, antibody as analyte. An excerpt:
(§2) To determine the affinity of the binding interactions, a biacore kinetic assay was developed which involved immobilizing TauC3 on a CM5 chip via amine coupling and injecting a concentration series of the respective antibody over it.
On the technique in general: In SPR one partner is held on a chip, and binding of the other changes the refractive index at the surface.

Test [7] has the same target. Kind of test: binding ELISA on coated TauC3, OD650; left table (HC variants). The method in brief:
as §1
In general terms: An ELISA detects its analyte on a solid surface through an enzyme-linked reagent.

Test [8] shares this target. Briefly: binding ELISA on coated TauC3, OD650; right table (HM variants). The gist of the method:
as §1

Test [9] deals with T2, full length Tau (2N4R, htau40) (human, UniProt P10636 1-758).
T2 construct: Generated and purified by Genscript; also called FL Tau; FLT
T2 sequence (P10636 other isoform, or with tags, fused parts or gaps limits assumed): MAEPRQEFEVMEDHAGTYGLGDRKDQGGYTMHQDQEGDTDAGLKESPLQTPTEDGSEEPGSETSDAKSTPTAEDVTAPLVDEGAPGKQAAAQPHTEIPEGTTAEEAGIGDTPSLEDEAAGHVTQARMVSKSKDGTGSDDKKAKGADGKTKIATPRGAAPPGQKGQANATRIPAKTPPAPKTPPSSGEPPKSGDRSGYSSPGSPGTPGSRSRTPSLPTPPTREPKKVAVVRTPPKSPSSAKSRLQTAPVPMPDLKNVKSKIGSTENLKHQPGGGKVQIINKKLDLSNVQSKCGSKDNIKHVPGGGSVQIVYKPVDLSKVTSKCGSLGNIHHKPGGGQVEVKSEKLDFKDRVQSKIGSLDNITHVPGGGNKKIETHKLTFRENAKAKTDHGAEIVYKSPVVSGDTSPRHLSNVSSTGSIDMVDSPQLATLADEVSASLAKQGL
Kind of test: Biacore, antibody captured on Protein G chip, FL Tau injected [Fig. 26B]. How it is done: To further evaluate the binding data observed on the Octet, an off-rate ranking experiment was performed on the Biacore 200 instrument. Biacore offers greater selectivity than the Octet and facilitated the immobilization of TauC3 onto a CM5 chip via amine coupling which stabilizes the antigen. This produces higher quality data with stable baselines and good reproducible responses. Once TauC3 is immobilized, one concentration (5 nM) of antibody is added, followed by a dissociation and regeneration step (Section 8.20). The off-rates were fitted using a two-phase decay model (FIG. 25B) or a one phase decay fitting only the second off-rate (FIG. 25A). The candidates were then ranked based on the off-rates obtained using the fits and compared. The data agreed with the Octet results (albeit with a different ranking order), highlighting Tau01 HMKM, HMKO, HMKP, HMKN and HMKE as the humanized variants with the slowest off-rates. The lack of binding of FL Tau to chimeric and a humanized candidate was also confirmed by Biacore by loading the antibody onto a Protein G chip and adding 250 nM FL Tau.

In test [10] the target is T1, TauC3 (C-terminally truncated tau …). Briefly: Biacore kinetics, TauC3 amine-coupled on CM5, antibody series, 1:1 global fit.
From the text: as §2

The target is the same in test [11]. Briefly: Biacore off-rate ranking, TauC3 amine-coupled on CM5, one antibody concentration; one-phase exponential decay fit.
The target is the same in test [12]. Kind of test: Biacore off-rate ranking, TauC3 amine-coupled on CM5, one antibody concentration; two-phase decay fit, slow phase. Further details: unit not given here.
For test [13] the target is unchanged. Briefly: binding ELISA, TauC3 coated. The method in brief: as §1
Test [14] shares this target. Kind of test: binding ELISA on coated TauC3, OD650. The gist of the method:
as §1
The source holds these as a separate data set.

Test [15] concerns the target T2, full length Tau (2N4R, htau40). Kind of test: binding ELISA on coated FL Tau, OD650. The gist of the method: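 Binding ELISA on coated full-length tau antigen, which was made and purified by Genscript. Antibody binding was read as absorbance at 650 nm.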
Test [16] deals with T1, TauC3 (C-terminally truncated tau …). Briefly: binding ELISA on coated TauC3, OD650. The method in brief:
as §1
The source holds these as a separate data set.

For test [17] the target is unchanged. Briefly: binding ELISA on coated TauC3, OD650. The gist of the method: as §1
The source holds these as a separate data set.

For test [18] the target is unchanged. Kind of test: SPR (Biacore) kinetics, TauC3 amine-coupled on CM5, 1:1 global fit. The method in brief:
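Surface plasmon resonance (Biacore) was used with purified TauC3 immobilised on a CM5 chip by amine coupling. A concentration series of each purified antibody was injected over the chip. Association rate, dissociation rate and Kd were obtained by a 1:1 global fit.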

For test [19] the target is unchanged. Briefly: binding ELISA on TauC3 after 21 days at 37 C in PBS or mouse, human, cynomolgus serum, with non-incubated control. How it is done: Purified samples of the chimeric and humanized antibodies were incubated in mouse, human and cynomolgus serum for 21 days. The binding of the Tau01 HMKE, HMKM, HMKN, HMKO, HMKP candidate antibodies which had been incubated in the 3 different serums were compared with an antibody incubated in PBS and a 4° C. positive control sample by binding ELISA to TauC3 (FIG. 37). The Tau01 HMKE, HMKM, HMKN, HMKO, HMKP candidate antibodies retained their binding capability after being incubated in mouse, human and cynomolgus serum.

The target in test [20] is T2, full length Tau (2N4R, htau40). Kind of test: Octet, antibody on Protein G sensor, FL Tau in solution. Here is the method:
The TauC3 and FL Tau antigens were generated and purified by Genscript and supplied at a concentration of 2.54 mg/ml or 0.24 mg/ml respectively. Binding of the chimeric antibody to TauC3 and FL Tau was assayed by binding ELISA. […] No non-specific binding to either antigen could be observed with an isotype confirming the binding observed is specific. Binding of the mouse and chimeric Tau01 antibodies to purified TauC3, was measured using Bio-Layer Interferometry (OctetRed96, ForteBio Section 8.12). The mouse and chimeric antibodies were assayed against a concentration series from 20 nM-0.31 nM TauC3 (FIGS. 8A and B). Both the mouse and chimeric antibodies were capable of binding to TauC3 in a concentration-dependent manner. The binding of the mouse and chimeric antibodies was also tested against FL Tau but low signals or no binding was observed (FIGS. 8C and D) confirming the binding of the antibodies is specific to TauC3.
On the technique in general: BLI is a label-free optical method that tracks binding on a fibre tip over time.

Several values for one entry are separate records, joined by “and”; a condition that tells them apart may be missing. Equal entries are not always repeated.

T1 sequence (P10636 other isoform, or with tags, fused parts or gaps): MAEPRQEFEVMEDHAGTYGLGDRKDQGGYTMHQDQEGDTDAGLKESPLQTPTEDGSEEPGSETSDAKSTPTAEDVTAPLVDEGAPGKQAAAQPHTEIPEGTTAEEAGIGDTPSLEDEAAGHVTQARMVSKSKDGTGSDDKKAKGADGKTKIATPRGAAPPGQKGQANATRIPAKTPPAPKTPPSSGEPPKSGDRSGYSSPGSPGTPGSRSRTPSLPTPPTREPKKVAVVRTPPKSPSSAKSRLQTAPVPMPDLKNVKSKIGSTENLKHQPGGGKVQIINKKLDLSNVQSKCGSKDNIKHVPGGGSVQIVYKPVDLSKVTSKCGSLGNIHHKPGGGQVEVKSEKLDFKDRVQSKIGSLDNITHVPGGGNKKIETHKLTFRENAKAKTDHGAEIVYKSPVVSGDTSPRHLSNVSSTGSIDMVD

B1: Tau01 HCKB HuG4K (antibody, V domains shown)
VH: LVQLVESGGGLVQPGGSLKLSCAASGFTFNTYAMNWVRQASGKGLEWVGRIRSKSNNYATYYAASVKGRFTISRDDSKSMAYLQMDSLKTEDTAVYYCVGGGDFWGQGTLVTVSS
VL: DIQMTQSPSSLSASVGDRVTITCRASQEISVYLSWFQQKPGKAIKRLIYGAFTLQSGVPSRFSGSRSGSEYTLTISSLQPEDFATYYCLQYVRYPWTFGGGTKVEIK
notes: human IgG4 kappa (HuG4K)
The term EC50 denotes the concentration needed to bring the measured effect to its halfway point. What is called Kd is the equilibrium constant for the complex coming apart. For orientation: koff means a measure of how fast the partners let go of each other. Usually kon stands for the second-order rate constant of association. Take B1: the EC50 in test [1] worked out at 0.84 nM; in test [2], 0.628 nM; in test [3], 0.502 nM; in test [4], 0.502 nM; in test [5], 0.502 nM; in [7], 0.73 nM. The molecule further yielded an EC50 in test [8] of 0.73 nM. The Kd was found to be 1.2 nM in test [6] and 1.24 nM in test [10]. In addition, the binding result in test [9] is reported as “no binding”. In addition, the koff in [10] came to 0.0249 s⁻¹; in test [11] it was 0.0114 s⁻¹. The molecule further gave a kon in [10] of 2.02e+07 M⁻¹ s⁻¹. In [12], this molecule yielded a Kslow of 0.012.

B2: MoTau01 HuG4K chimeric antibody (antibody, V domains shown)
VH: EVQVVESGGGLVQPKGSLKLSCAASGFTFNTYAMNWVRQAPGKGLEWVARIRSKSNNYATYYADSVKDRFTISRDDSQSMVYLQMNNLKTEDTAMYYCVGGGDFWGQGTALTVSS
VL: DIQMTQSPSSLSASLGERVSLTCRASQEISVYLSWFQQKPDGTIKRLIYGAFTLDSGVPKRFSGSRSGSDYSLTISSLESEDFADYYCLQYVRYPWTFGGGTKLEIK
notes: Mouse variable regions with human IgG4 / kappa constant regions (pHuG4, pHuK); also called chimeric Tau01
For orientation: EC50 (read off the curve) means the concentration that produces a half-maximal response. For the molecule B2, the EC50 in test [13] is 0.7 nM and 0.65 nM; in test [14] it was 0.71 nM; in test [1], 0.58 nM and 0.54 nM and 0.63 nM; in test [16], 0.298 nM and 0.313 nM; in test [17] it was 0.724 nM; in test [2], 0.724 nM. The EC50 in [3] is 0.474 nM; in test [4], 0.474 nM; in [5], 0.474 nM; in test [7], 0.438 nM and 0.483 nM and 0.538 nM and 0.73 nM; in test [8] it was 0.438 nM and 0.483 nM and 0.538 nM and 0.73 nM. In [15], the binding result was “no binding (tested: about 30 nM)”. The Kd is 0.057 nM in test [18] and 0.0574 nM in [10]. Also, the koff came out at 0.000741 s⁻¹ in test [18] and 0.000414 s⁻¹ in test [11]. In test [18], this molecule displayed a kon of 1.29e+07 M⁻¹ s⁻¹. Further, the Kslow in test [12] turned out to be 0.000414. In addition, in [19], the “EC50 (read off the curve)” value is roughly 0.5 nM.

B3: MoTau01 mouse antibody (antibody, V domains shown)
VH: EVQVVESGGGLVQPKGSLKLSCAASGFTFNTYAMNWVRQAPGKGLEWVARIRSKSNNYATYYADSVKDRFTISRDDSQSMVYLQMNNLKTEDTAMYYCVGGGDFWGQGTALTVSS
VL: DIQMTQSPSSLSASLGERVSLTCRASQEISVYLSWFQQKPDGTIKRLIYGAFTLDSGVPKRFSGSRSGSDYSLTISSLESEDFADYYCLQYVRYPWTFGGGTKLEIK
notes: Mouse hybridoma antibody; also called mouse Tau01; murine Tau01
In the case of B3, the binding result in test [20] is listed as “no binding (tested: not printed on the sheet)”.
